# Results: patent US20210163536A1
# Bridges are numbered along the chain shown (N, C = ends). [ ]: non-standard residue; d: D form.
# Columns and labels:
# [1] = target: human melanocortin-3 receptor (human) (UniProt P41968); assay: competition with [125I]-NDP-alpha-MSH, CHO-K1 cell membranes
# [2] = target: human melanocortin-4 receptor (human) (UniProt P32245); assay: as above
# [3] = target: human melanocortin-1 receptor (human) (UniProt Q01726); assay: as above
# [4] = target: human melanocortin-3 receptor (human) (UniProt P41968); assay: cell-based or functional assay
# [5] = target: human melanocortin-4 receptor (human) (UniProt P32245); assay: cell-based or functional assay
# human melanocortin-4 receptor (human), sequence (P32245 whole entry): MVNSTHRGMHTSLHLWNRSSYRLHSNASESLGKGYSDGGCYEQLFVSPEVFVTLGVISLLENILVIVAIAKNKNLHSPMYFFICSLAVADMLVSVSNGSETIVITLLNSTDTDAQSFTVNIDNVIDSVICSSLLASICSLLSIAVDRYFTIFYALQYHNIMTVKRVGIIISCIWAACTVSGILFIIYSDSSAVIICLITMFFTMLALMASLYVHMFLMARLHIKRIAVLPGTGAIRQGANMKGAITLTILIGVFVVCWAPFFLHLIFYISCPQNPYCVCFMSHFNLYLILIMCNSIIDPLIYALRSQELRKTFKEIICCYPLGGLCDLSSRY
# human melanocortin-3 receptor (human), sequence (P41968 whole entry): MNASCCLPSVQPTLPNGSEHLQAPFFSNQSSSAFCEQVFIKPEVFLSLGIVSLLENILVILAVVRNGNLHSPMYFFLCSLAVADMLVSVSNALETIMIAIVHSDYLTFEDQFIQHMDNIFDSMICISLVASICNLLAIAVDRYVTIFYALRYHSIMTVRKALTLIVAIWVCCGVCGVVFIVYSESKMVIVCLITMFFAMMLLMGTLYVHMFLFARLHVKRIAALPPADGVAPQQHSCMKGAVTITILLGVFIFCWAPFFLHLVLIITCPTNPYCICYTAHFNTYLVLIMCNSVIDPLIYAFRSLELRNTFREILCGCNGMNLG
# human melanocortin-1 receptor (human), sequence (Q01726 whole entry): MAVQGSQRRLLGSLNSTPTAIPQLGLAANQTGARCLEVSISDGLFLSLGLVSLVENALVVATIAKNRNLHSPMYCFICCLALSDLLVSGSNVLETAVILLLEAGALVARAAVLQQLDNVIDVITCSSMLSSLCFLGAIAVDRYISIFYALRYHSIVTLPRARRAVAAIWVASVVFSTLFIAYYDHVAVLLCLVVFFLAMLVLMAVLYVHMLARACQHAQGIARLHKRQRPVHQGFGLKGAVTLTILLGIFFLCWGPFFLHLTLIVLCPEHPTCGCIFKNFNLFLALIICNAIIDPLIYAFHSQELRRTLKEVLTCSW
binder,measurement,setting,value
H[dF]RWK-NH2 (lactam N-5; not fully specified (N-terminus); printed as cyclo[Hydantoin(C(O)-(Glu-D-Ala))-His-D-Phe-Arg-Trp-Lys]-NH2; also: hydantoin ring from Glu and D-Ala with C(O) joining their backbone nitrogens) [cyclo[Hydantoin(C(O)-(Glu-D-Ala))-His-D-Phe-Arg-Trp-Lys]-NH2],Ki,[1],1920 nM
same,Ki,[2],45.2 nM
same,Ki,[3],72.6 nM
same,"EC50, intracellular cyclic AMP (cAMP) levels",[4],22.3 nM
same,"EC50, intracellular cyclic AMP (cAMP) levels",[5],3.62 nM
